Publication PMC6918743, “Mammalian TRP ion channels are insensitive to membrane stretch” (Journal of Cell Science, 2019)

B1: mouse TRPC6, full-length (WT) protein (natural protein, UniProt Q61143 1-930, looked up)
chain: MSQSPRFVTRRGGSLKAAPGAGTRRNESQDYLLMDELGDDGYPQLPLPPYGYYPSFRGNENRLTHRRQTILREKGRRLANRGPAYMFNDHSTSLSIEEERFLDAAEYGNIPVVRKMLEECHSLNVNCVDYMGQNALQLAVANEHLEITELLLKKENLSRVGDALLLAISKGYVRIVEAILNHPAFAEGKRLATSPSQSELQQDDFYAYDEDGTRFSHDVTPIILAAHCQEYEIVHTLLRKGARIERPHDYFCKCTECSQKQKHDSFSHSRSRINAYKGLASPAYLSLSSEDPVMTALELSNELAVLANIEKEFKNDYRKLSMQCKDFVVGLLDLCRNTEEVEAILNGDAETRQPGDFGRPNLSRLKLAIKYEVKKFVAHPNCQQQLLSIWYENLSGLRQQTMAVKFLVVLAVAIGLPFLALIYWCAPCSKMGKILRGPFMKFVAHAASFTIFLGLLVMNAADRFEGTKLLPNETSTDNARQLFRMKTSCFSWMEMLIISWVIGMIWAECKEIWTQGPKEYLFELWNMLDFGMLAIFAASFIARFMAFWHASKAQSIIDANDTLKDLTKVTLGDNVKYYNLARIKWDPTDPQIISEGLYAIAVVLSFSRIAYILPANESFGPLQISLGRTVKDIFKFMVIFIMVFVAFMIGMFNLYSYYIGAKQNEAFTTVEESFKTLFWAIFGLSEVKSVVINYNHKFIENIGYVLYGVYNVTMVIVLLNMLIAMINSSFQEIEDDADVEWKFARAKLWFSYFEEGRTLPVPFNLVPSPKSLLYLLLKFKKWMCELIQGQKQGFQEDAEMNKRNEEKKFGISGSHEDLSKFSLDKNQLAHNKQSSTRSSEDYHLNSFSNPPRQYQKIMKRLIKRYVLQAQIDKESDEVNEGELKEIKQDISSLRYELLEEKSQNTEDLAELIRKLGERLSLEPKLEESRR
notes: TRPC6, Mus musculus, full-length (WT) protein; Tags removed with ProTEV Plus protease; solubilised in DDM; also called mTRPC6; WT TRPC6; source: Sf9 (baculovirus, Bac-to-Bac), purified (amylose resin, Superose 6); not shown: His8, N-terminal, cleaved; MBP, N-terminal, cleaved
B2: Δ94 mTRPC6 (94 aa N-terminally truncated mouse TRPC6) (domain or fragment, UniProt Q61143 95-930, looked up)
chain: SIEEERFLDAAEYGNIPVVRKMLEECHSLNVNCVDYMGQNALQLAVANEHLEITELLLKKENLSRVGDALLLAISKGYVRIVEAILNHPAFAEGKRLATSPSQSELQQDDFYAYDEDGTRFSHDVTPIILAAHCQEYEIVHTLLRKGARIERPHDYFCKCTECSQKQKHDSFSHSRSRINAYKGLASPAYLSLSSEDPVMTALELSNELAVLANIEKEFKNDYRKLSMQCKDFVVGLLDLCRNTEEVEAILNGDAETRQPGDFGRPNLSRLKLAIKYEVKKFVAHPNCQQQLLSIWYENLSGLRQQTMAVKFLVVLAVAIGLPFLALIYWCAPCSKMGKILRGPFMKFVAHAASFTIFLGLLVMNAADRFEGTKLLPNETSTDNARQLFRMKTSCFSWMEMLIISWVIGMIWAECKEIWTQGPKEYLFELWNMLDFGMLAIFAASFIARFMAFWHASKAQSIIDANDTLKDLTKVTLGDNVKYYNLARIKWDPTDPQIISEGLYAIAVVLSFSRIAYILPANESFGPLQISLGRTVKDIFKFMVIFIMVFVAFMIGMFNLYSYYIGAKQNEAFTTVEESFKTLFWAIFGLSEVKSVVINYNHKFIENIGYVLYGVYNVTMVIVLLNMLIAMINSSFQEIEDDADVEWKFARAKLWFSYFEEGRTLPVPFNLVPSPKSLLYLLLKFKKWMCELIQGQKQGFQEDAEMNKRNEEKKFGISGSHEDLSKFSLDKNQLAHNKQSSTRSSEDYHLNSFSNPPRQYQKIMKRLIKRYVLQAQIDKESDEVNEGELKEIKQDISSLRYELLEEKSQNTEDLAELIRKLGERLSLEPKLEESRR
notes: TRPC6, Mus musculus, N-terminal truncation of 94 aa (Δ94); The limit 95 follows from the printed '94 aa truncated' N-terminal truncation; Tags removed with ProTEV Plus protease; solubilised in DDM; also called Δ94 TRPC6; N-terminal truncation (Δ94) of TRPC6; source: Sf9 (baculovirus, Bac-to-Bac), purified (amylose resin, Superose 6); not shown: His8, N-terminal, cleaved; MBP, N-terminal, cleaved

Molecular target: the molecule itself
Assay: SEC; Superose 6 10/300 GL column; 150 mM NaCl, 20 mM HEPES, 2 mM TCEP (pH 7.4); DDM-mTRPC6 protein complex; peak assigned to the tetramer

| Protein | stoichiometry N |
| --- | --- |
| B1 | 4 |
| B2 | 4 |
